Measured values: the nanobody polyreactivity screen of Harvey et al. (2022)

Experiment: yeast display, Sf9 membrane polyspecificity reagent, FACS + sequencing; frameworks hold sequencing errors
Procedure, shortened: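 Using colony PCR, genes from sorted yeast display clones were amplified, then sequenced on MiSeq at 2 × 250 and filtered by CDR length. The clones had been stained with 10% biotinylated, detergent-solubilized Sf9 membrane reagent for 1 hour at 4 °C and sorted by FACS into low and high (top ~1%) gates on anti-HA and streptavidin fluorescence. Polyreactivity labels come from the gate of origin.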

Sequence	polyreactivity (PSR sort gate)
QVQLVESGGGLVQAGGSLRLSCAASGRTFGWNAMGWYRQAPGKERELVAGITTSGGTTYADSVKGRFTISRDNAKNTVYLQMNSLKPEDTAVYYCAAYVIGPDQFIYDYWGQGTQVTVSS	low polyreactivity
QVQLVESGGGLVQAGGSLRLSCAASGFTFVAYAMGWYRQAPGKERELVAAISKSGGSTYYADSVKGRFTISRDNAKNSVYLQMNRLKPEDTAVYYCAARYYAYRSDYWGQGTQVTVSS	high polyreactivity
QVQLVESGGGLVQAGGSLRLSCAASGSIFSYYAMGWYRQAPGKERELVAAISYTGGTTYYADSVKGRFTISRDNAKNTVYLQMNSLKPEDTAVYYCAAQWWWNRPVRYEYWGQGTQVTVSS	low polyreactivity
QVQLVESGGGLVQAGGSLRLSCAASGFIFHQNAMGWYRQAPGKERELVAAITRSGTSTYYADSVKGRFTISRDYAKISVYLQMNSLKPVDTAVFYCANDPVRVGRFGYEYWGKGTQVTVSS	low polyreactivity
QVKLVESGGGLVQAGGSHRLSCPASGRIFYPYAMGWYRQAPGKESELVAAISWSTVSTYYADSVKGRFTISRDNAKNNVYLQMNSLKPEDTAVYYCAARLYFSSSLRCVDFWGQGTQVTVSS	high polyreactivity
QVQLVESGGVLVQAGGSLRLSCAASGFTFAKNAMGWYRQAPGKERELVATISRSGGSTYYADSVKGRFTISRDKAKNTVYLQMNSLKPEDTAVYYCNKKYKYLYDYWGQGTQVTVSS	high polyreactivity
QDQLVESGGGLVQAGGSLRLTSAASGFKFEKNAMGWYRQSPGKERQLVARISRSGGSTYYADSVKGRFTISRDNAKNTVYLQMNSLKPEDTADYYCNCLHRSDSGYYYRYDYWGQGTQVTVSS	high polyreactivity
QVQLVESGGGLVQAGGSLRLSCAASGRTFYEYTMGWYRQAPGKERELVAAITWSVGSTYYADSVKGRFTISRDNAKNTVYLQMNSLKPEDTAVYYCAAYYYVWYYYWGQGTQVTVSS	low polyreactivity
QVQLLESGGGLVQAGGSLRLSCMASGSILGDRMSWYRQAPGKEHELVATIYDGGITYYADSMKGRFTISRDNAKNTLYLQMNSLRPEDTAVYYCGACFEGYRYHVYCGQGTQVTVSS	low polyreactivity
QVQHVESGGGLVQSGGSLRLSCAASGRIFDYNAMGWSRQAPGKERELVAAITSSSGSSTYYADSVKGRFTISRDNAKNTVYLQMNSLIPVDTAVYYCNAGGSDIYLSPFDYWGQGTQVTVSS	low polyreactivity
QVQLVESGGGLVQAGGSLRLSCAASGIIFDDYAMGWYRQAPGKERELVAAISVSGGSTYYADSVKGRFTISRDNAKNTVYLQMNSLKPEDTAVYYCAARLIVGRFLRYDYWGQGTQVSVSS	high polyreactivity
QVQLVESGGGLVQAGGSLRLSCAASGITFTVNAMGWYRQAPGKERELVAAISNDGSTYYADSVKGRFTISRDNAKNTVYLQMNSLKPEDTAVYYCAADTWDDFGPYGYDYWGQGTQVTVSS	low polyreactivity
QVQLVESGGGLVQAGGSLRLSCAASGSIFYRYAMGWYRQAPGKERELVATISLSGGSTYADSVKGRFTISRDNAKNTVYLQMNSLKPEDTAVYYCAAGGQYYIIRYDYWGQGTQVTVSS	low polyreactivity
QVQLQESGGGLVQAGGSLRLSCAASGSIFVSVTMGWYRQAPGKERELVASIGRGSTTNHADSVKGRFTISRDNAKNIVYLLMNSLKPEDTAVYYCAALESYGKYHGYWGQGTQVTVCS	low polyreactivity
QVQLVESGGGLVQAGGSLRLSCAASGRIFGRNAMGWYRQAPGKERELVAGISSGGTTDYADSVKGRFTISRDNAKNTVYLQMNSLKPEDTAVYYCNDGYAYDDQTYYLGESDYWGQGTQVTVSS	low polyreactivity
QVQLVESGGGLVQAGGSLRLSCAASGRIWVNALGWYRQAPGKEREFVAAISTSSASTYYADSVKGRFTISRDNAKNTVYLQMNSLKPEDTAVYYCASRYLGKKYYWFKTMDYWGQGTQVTVSS	high polyreactivity
QVQLVESGGGLVQAGGSLRLSCAASGRIFTGNAMGWYRQAPGKERELVATITRRGGSTYYADSVKGRFTISRDHAKNTVYLQMNSLKPEDTAVYYCDANRLFSYDKYGYWGQGTQVTVSS	high polyreactivity
QVQLVESGGGLVQAGGSLRLICAASGSIFRYYAMGWYRQAPGKERELVAVITRSSSTYYADSVKGRFTISRDNAKNTVYLQMNSLKPEDTAVYDCAARYRSGAAGYNYWGQGTQVTVSS	high polyreactivity
QVQLVESGGGLVQAGGSLRLICAASGLIFDYYRMGWYRQATGKQRELVAAITSSGSRTYYADSVKGRFTISRDNAKKTVYLQMNSLNPEDTAVYFCARGGGRRKGLVDYWGQGTQVTVSS	low polyreactivity
QVQLVESGGGLVQAGGSLRLSCAASGGTFSSYDMGWYRQAPGKERELVAAISWSGSSTDYADSVKGRFTISRDNAKNTVYLQMNSLKPEDTAVYYCNTDYWEITYSGVIWPEYDYWGQGTQVTVSS	low polyreactivity
QVQLVESGGGLVQAGGSLRLSCAASGRSLHHYAMGWYSQAPGKERELVAAIRWGGGSTYYADSVKGRFTISRDNAKNTVYLQMNSLNPEDPAVYSCAAEVVAGYDYSQYYYWGQGTQVTVST	low polyreactivity
QVQLVESGGGLVQAGGSLRLSCAASGNIFGEYAMGWYRQAPGKERELVATISSGGDTYYADSVKGRFTISRDNAKNTVYLQMNSLKPEDTAVYYCAVVDTLYESKYDYWGQGTQVTVSS	low polyreactivity

Sequence	polyreactivity (PSR sort gate)
QVQLVESGGGLVQAGGSLRLSCAASGFTIKYYAMGWYRQAPGKEREFVAAISSSGGRTYYADSVKVRFTISRDYAKNTVYLQMNSLKPEDTAVYYCAAAWGTYGYHYDYLGQGTQVTVSS	low polyreactivity
QVQLVESGGGLVQAGGSLRLSCAASGRIFPYYAMGWYRQAPGKERELVAAITARGGRTYYADSVKGRFSISRDNAKNTVYLQMNSLKPEETAVYYCNTGGRSGSPGYDYWGQGTQVTVSS	high polyreactivity
QVQLVESGGGLVHAGGSLRLSCAASGFTFWYYTMGWYRQAPGKERELVAAITASGGNTYYADSVKGRFTISRDNAKNTVYLQMYSLKPEDTAVYYSNAVSLKFTRKYDYWGQGPQVTVSS	high polyreactivity
QVQLVESGGGLVQAGGSLRLSCAASGSIFSSNAMGWYRQAPGKERELVAAITRGGRTTYADSVKGRFTISRDNAKNTVYLQMNSLKPEDTAVYYCNAESYLTGWWVDYWGQGTQVTVSS	low polyreactivity
QVQLVESGGGLVQAGGSLRLSCAASGRIFGNYAMGWYRQAPGKARELVAAITSGARTYYADSVKGRFTISRDNAKNTVYLQMNSLKPEDTAVYYCAAYHKSYSYRYDYWGQGTQVTVSS	high polyreactivity
QVQLVESGGGLVQAGGSLRLSCAASGSIFRRYAIGWYRQAPGKERELVAAISGRGGSTYYADSVKGRFTISRDNAKNTVYLQMNSLKPEDTAVYYCNADRYYSHYSYYYWGQGTQVTVSS	high polyreactivity
QVQLVESGGGLVQAGGSLRLSCAASGRISRLNAMGWYRQAPGKERELVATISGRGGGTYYADSVKGRFTISRDNAKNTVYLQMNSLKPEDTAVYYCAVRGLYQGRRRYSSEYDYWGQGTQVTVSS	high polyreactivity
QVQLVESGGGLVQAGGSLRLSCAASGNIIVENAMGWYRQAPAKERELVAVSTSGTSTYADSVKGRFTISRDNAKITVYLQMNSLKPEDTAVYYCNARRINTLYDYWGQGTQVTVSS	low polyreactivity
QVQLVESGGGLVQAGGSLRLSCAASGSTFTWYAMGWYRQAPWKERELVADISYGGGSTYYADSVKGRFTISRDNAKNTVYLQMNSLKPEDTEVYYCAAASYLYLYLLEDYWGQGTQVTVSS	low polyreactivity
QVQLVESGGGLVQAGGSLRLSCAASGSIFNSNAMGWYRQAPGKERELVAVISWSDGSTRYADSVKGRFTISRDNVKNTVYLQMNSLKPEDTAVYYCAADYLDGIYEYDYWGQGTQVTVSS	low polyreactivity
QVQLVESGGGLVQAGGSLRLSSAASGSTFPVNARGCYRQAPGKERELVAAISSRGSSTYYADSVKGRFTISRDNAKNTVYLQMHSLNREDTAVYYCAAQQRFPRFYYWGEGTQVTVSS	high polyreactivity
QVQLVESGGGLVQAGGSLRLSCAASGSNFYPYAMGWYRQAPGKERELVAGITGGGRTYYADSVKGRFTISRDNAKNTVYLQMNSLKPEDTAVYYCAAVDYVSYYIPFHYEYYWGQGTQVTVSS	low polyreactivity
QVQLVESGGGLVQAGGSLRLSCAPSGFFFYSNTMGWYRQAPGKERELVDTISKRSGNTYYADSVKGRFTISRDFAKNTVYLQMNSLKPEDTSVYYCAADFWVRHKMWYPYTSIQAYNYWGQGTQVTVSS	high polyreactivity
QVQLVESGGGLVQAGGSLRLSCAASGRTFPAYAMGWYRQAPGKERELVAAISYSGGRTRYADSVKGRFTISRDNAKNTVYLQMNSLKPEDTAVYYCNRVIPTHSLRDYYWGQGSQVTVSS	high polyreactivity
QVQLVESGGGLVQAGGSLRLSCAASGITFRNYAMGWYRQAPGKERELVADITTGGSTYADSVKGRFTISRDNAKNTVYLQMNSLKPEDTAVYDCAADRDFRTPRLYYWGQGTQVTVSS	low polyreactivity
QVQLVESGGGLVQAGGSLRLSCAASGGIFSYNAMGWSRQAPGKEREWVASITGSGGSTYYADSVKGRFTISRGNAKNTVYLQMNSLKPEDTAVYYCAAQGYWTYWPYLLRLYDYWGQGTQVTVSS	low polyreactivity
QVQLVESGGGLVQAGGSLRLSCAASGTMGSYRQAPGKERELVAAISQSGGSTYYADSVKGRFTISRDNAKNTVYLQMNSLKPEDTAVYYCAVDPRYGHPRRDYWGQGTQVTVSS	low polyreactivity
QVQLVESGGGLVQAGGSLRLSCAASGIILPYYAMGWYRQAPGKEREFVATISSDGTSTYYADSVKGRFTISRDNAKNTVYLQMNSLKPEDTAVYYCAARIRQNPGGDNSWGQGTQVTVSS	low polyreactivity
QVQLVESGGGLVQAGGSLRLSCAASGSTFSRNVMAWYRQAPGKDRELVAAISRGGSTNYADSVKGRFTISRDNAKNTVYLQMNSLKPEDTAVYYCNAPRLGKFYYWGQGTQVTVSS	low polyreactivity
QVQLVESGGGLVQAGGSLRLSCAASGFIFYKNAMGWYRKAPGKERELVAAISSRGGSTSYADSVKGRFTISRDNAKNTVYLQMNSLKREDTAVYYCAAYPDYSYYYWGQGTQVTVSS	high polyreactivity
QVQLVESGGGLVQAGGSLRLSCAASGIIFYHYAMGWYRQPPGKERELVAAITWSGGTTYYADSVKGRFTISRDNAKNTVYLQMNSMKPEDTAVYYCNADYVPYGFDYWGQGTQVTVSS	low polyreactivity
